Laboratory results as given in paper PMC7156710, “The Sox2 transcription factor binds RNA”.
“And” between values parts separate entries of the source, which are not always exact repeats. Equal entries are not always repeated.

B1: Loop B fully paired RNA duplex (dsRNA)
RNA 1: GGUCUUAUCAUGCGGGC
RNA 2: GCCCGCAUGAUAAGACC
B2: ES2 1-89 (structured_RNA)
RNA: GGAAGAAGUGAAAUCACUAUAUUUAGAAACGAAUGCUACCAUCCCACCCCAACUACAUGUUCAGGUUAAAUGCGUGCACAUCCUGGUAG
B3: ES2 267-354 (structured_RNA)
RNA: GGUGAUGUUCGCCGUGGCCACUUAUCAUGCGGGCUCCUUUGGGAGGGUGCUCUUCUUUGUCUGUACCUCUGGGUGGAAAGGGCGAAUUC
B4: ES2 89-267 (structured_RNA)
RNA: GGCUGGAACAUCUGUUUCUAGCUUGUUGUUCCUCUUGGCUGCUUUUCAAUUGGAUUUCCUCGAGCAGGUCCCAGGCUUGUCACUGCAGCCAGGGUCUGUUAACCAUCACCACUGGUUCUACAUUAAGUAGGAGGUUCAGGGCUAAGCUAAUAACUCGCCUGCCUUUCUGACUGAUCACAG
B5: ES2 89-178 (structured_RNA)
RNA: GGCUGGAACAUCUGUUUCUAGCUUGUUGUUCCUCUUGGCUGCUUUUCAAUUGGAUUUCCUCGAGCAGGUCCCAGGCUUGUCACUGCAGCCA
B6: ES2 179-354 (structured_RNA)
RNA: GGGUCUGUUAACCAUCACCACUGGUUCUACAUUAAGUAGGAGGUUCAGGGCUAAGCUAAUAACUCGCCUGCCUUUCUGACUGAUCACAGUGAUGUUCGCCGUGGCCACUUAUCAUGCGGGCUCCUUUGGGAGGGUGCUCUUCUUUGUCUGUACCUCUGGGUGGAAAGGGCGAAUUC
B7: tRNALeu(CAG) (structured_RNA)
RNA: GCGAAGGUGGCGGAAUUGGUAGACGCGCUAGCUUCAGGUGUUAGUGUCCUUACGGACGUGGGGGUUCAAGUCCCCCCCCUCGCACCAGGAUCU
B8: ES2 1-178 (structured_RNA)
RNA: GGAAGAAGUGAAAUCACUAUAUUUAGAAACGAAUGCUACCAUCCCACCCCAACUACAUGUUCAGGUUAAAUGCGUGCACAUCCUGGUAGCUGGAACAUCUGUUUCUAGCUUGUUGUUCCUCUUGGCUGCUUUUCAAUUGGAUUUCCUCGAGCAGGUCCCAGGCUUGUCACUGCAGCCA
B9: ES2 179-267 (structured_RNA)
RNA: GGGUCUGUUAACCAUCACCACUGGUUCUACAUUAAGUAGGAGGUUCAGGGCUAAGCUAAUAACUCGCCUGCCUUUCUGACUGAUCACAG
B10: xpt-pbuX riboswitch (structured_RNA)
RNA: GGACAUAUAAUCGCGUGGAUAUGGCACGCAAGUUUCUACCGGGCACCGUAAAUGUCCGACUAUGUCC
B11: env4 Cbl riboswitch (structured_RNA)
RNA: GGUGUUAAAAGCAUAGUGGGAAAGUGACGUGUAAUUCGUCCACAUUACUUGAUGCGGUUAUAGUCCCAAUGCCACCUAACACAAAGUACGAGCAAGGAGACUC
B12: Loop B fully paired RNA duplex (Fig. 3g) (dsRNA)
RNA 1: GGUCUUAUCAUGCGGGC
RNA 2: GCCCGCAUGAUAAGACC
B13: DPPA4 enhancer dsDNA (dsDNA)
DNA 1: CGCGCATTTGTACCCGGGT
DNA 2: ACCCGGGTACAAATGCGCG
B14: SOX2 enhancer dsDNA (dsDNA)
DNA 1: CGCGCCATTGTGCCCGGGT
DNA 2: ACCCGGGCACAATGGCGCG
B15: CCND1_SM1 dsDNA (dsDNA)
DNA 1: CGCGCCCTCTTCCCCGGGT
DNA 2: ACCCGGGGAAGAGGGCGCG
B16: CCND1_SM6 dsDNA (dsDNA)
DNA 1: CGCGCACTACAGCCCGGGT
DNA 2: ACCCGGGCTGTAGTGCGCG
B17: FGF4 enhancer dsDNA (dsDNA)
DNA 1: CGCGCCTTTGTTCCCGGGT
DNA 2: ACCCGGGAACAAAGGCGCG

The binders below were run against T1, Sox2-HMG (Homo sapiens, UniProt P48431 40-123) (assay: competition; unlabeled RNA vs labeled FGF4 DNA; 10 mM Tris-HEPES pH 7.5, 135 mM KCl, 15 mM NaCl, 1 mM DTT, 8% Ficoll, 0.05% NP-40, 0.1 mg/mL BSA; 2 nM DNA or 3 nM RNA; room temperature (stated for competition)). Conditions: protein: recombinant; tags: N-terminal His6, thrombin cleaved; label: 3' fluorescein; hairpin.
T1 sequence (P48431 40-123): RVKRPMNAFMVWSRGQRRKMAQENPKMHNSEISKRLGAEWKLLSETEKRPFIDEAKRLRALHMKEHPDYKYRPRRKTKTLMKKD

Binder GGUCUUAAGGUGCGGGCGAAAGUCUGUACCUCUGGGACC (structured_RNA) [Loop B, Bulge(0+1)] has a Ki of 13 ± 4 nM.

These binders were tested against T1, Sox2-HMG (assay: fluorescence anisotropy; 10 mM Tris-HEPES pH 7.5, 135 mM KCl, 15 mM NaCl, 1 mM DTT, 8% Ficoll, 0.05% NP-40, 0.1 mg/mL BSA; 2 nM DNA or 3 nM RNA; room temperature (stated for competition)). Conditions: protein: recombinant; tags: N-terminal His6, thrombin cleaved; label: 3' fluorescein; hairpin.

In order of falling Kd:
1. GGUCUUAUCAUGCGGGCGAAAGUCUGUAUGAUGGGACC (structured_RNA) [Loop B, Fully Paired]  15 ± 2 nM
2. GGUUAUCAUGCGGGCGAAAGUCUGUACCUCUGGCC (structured_RNA) [Loop B, P1(5bp)]  12.8 ± 1.8 nM

Same assay, conditions: protein: recombinant; tags: N-terminal His6, thrombin cleaved; label: FAM on one strand; blunt

B1 was tested, and the Kd was 54 ± 9 nM.

These binders were tested against Sox2-HMG (thrombin cleaved) (Homo sapiens, UniProt P48431 38-121) (assay: fluorescence anisotropy; 10 mM Tris-HEPES pH 7.5, 8% Ficoll, 0.05% NP-40, 135 mM KCl, 15 mM NaCl, 1 mM DTT, 0.1 mg/mL BSA; 2 nM DNA or 3 nM RNA). Conditions: protein: recombinant; tags: N-terminal GSHM left after thrombin cleavage of His6; label: 3' fluorescein.
Sox2-HMG (thrombin cleaved), sequence (P48431 other isoform, or with tags, fused parts or gaps): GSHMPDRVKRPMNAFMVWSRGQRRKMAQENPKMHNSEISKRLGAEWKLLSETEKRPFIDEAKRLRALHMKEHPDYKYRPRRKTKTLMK

In order of rising Kd:
1. B3  10.3 ± 2.03 nM
2. B6  11.2 ± 0.792 nM
3. B9  11.5 ± 2.68 nM
4. B5  13.4 ± 1.63 nM
5. B2  22.2 ± 3.26 nM
6. B10  25.4 ± 2.54 nM
7. B7  26.5 ± 5.62 nM
8. B8  29.7 ± 4.07 nM
9. B4  32.4 ± 6.56 nM
10. B11  32.4 ± 1.08 nM

Same assay, conditions: protein: recombinant; tags: N-terminal GSHM left after thrombin cleavage of His6; label: 3' fluorescein; hairpin

In order of falling Kd:
1. GGUCUUAUCAUGCGGGCGAAAGUCUGUAUGAUGGGACC (structured_RNA) [Loop B, Fully Paired]  14.7 ± 1.68 nM
2. GGUCUUAUCGUGCGGGCGAAAGUCUGUACCUCUGGGACC (structured_RNA) [Loop B, Bulge(2+3)]  13.6 ± 2.46 nM
3. GGUUAUCAUGCGGGCGAAAGUCUGUACCUCUGGCC (structured_RNA) [Loop B, P1(5bp)]  12.8 ± 1.84 nM
4. GGUCUUAUGGUGCGGGCGAAAGUCUGUACCUCUGGGACC (structured_RNA) [Loop B, Bulge(1+2)]  12 ± 1.98 nM
5. GGUCUUAUCAUGCGAAAGUACCUCUGGGACC (structured_RNA) [Loop B, P2(3bp)]  11.4 ± 1.46 nM
6. GGUCGCCGUGGCCACUUCGAAAGGGGUGGAAAGGGCGACC (structured_RNA) [Loop A]  11.3 ± 2.5 nM
7. GGUGGGCUCCUUUGGGAGGGUGCUCUUCUUUGUCUACC (structured_RNA) [Loop C]  11.2 ± 1.57 nM
8. GGUAUCAUGCGGAAACGCACCUCUACC (structured_RNA) [Loop B, P1/2(3bp)]  10.6 ± 1.82 nM
9. GGAUCAUGCGGGCGAAAGUCUGUACCUCUCC (structured_RNA) [Loop B, P1(3bp)]  10.3 ± 1.94 nM
10. GGUCUUAAGGUGCGGGCGAAAGUCUGUACCUCUGGGACC (structured_RNA) [Loop B, Bulge(0+1)]  10 ± 1.66 nM
11. GGUCUUAUCAUGCGCGAAAGUGUACCUCUGGGACC (structured_RNA) [Loop B, P2(5bp)]  9.6 ± 1.32 nM

Same assay, conditions: protein: recombinant; tags: N-terminal GSHM left after thrombin cleavage of His6; label: 3' fluorescein; hairpin with internal loop

GGUCUUAUCAUGCGGGCGAAAGUCUGUACCUCUGGGACC (structured_RNA) [Loop B] was tested, and the Kd was 10 ± 1.68 nM.

Same assay, conditions: protein: recombinant; tags: N-terminal GSHM left after thrombin cleavage of His6; label: 3' fluorescein; unstructured

Binder AUACAACAUACAACAUACAACAUACAACAUACAACA (ssRNA) [env8 ssRNA] has a Kd of 502 ± 123 nM.

Same assay, conditions: protein: recombinant; tags: N-terminal GSHM left after thrombin cleavage of His6; label: FAM on one strand

In the case of B12, the Kd is reported as 35.1 ± 2.81 nM.

Same assay, conditions: protein: recombinant; tags: N-terminal GSHM left after thrombin cleavage of His6; label: FAM; only (+) strand given

In order of falling Kd:
1. B16  23.8 ± 5.4 nM
2. B15  9.77 ± 1.07 nM
3. B13  3.4 ± 0.954 nM
4. B14  0.867 ± 0.219 nM

For B17, the Kd was 0.937 nM and 0.85 nM.

These binders were tested against Sox2-HMG (HRV 3C cleaved) (Homo sapiens, UniProt P48431 38-121) in the same assay as above. Conditions: protein: recombinant; tags: N-terminal GPHM left after removal of His8-MBP; label: 3'-FAM; hairpin.
Sox2-HMG (HRV 3C cleaved), sequence (P48431 other isoform, or with tags, fused parts or gaps): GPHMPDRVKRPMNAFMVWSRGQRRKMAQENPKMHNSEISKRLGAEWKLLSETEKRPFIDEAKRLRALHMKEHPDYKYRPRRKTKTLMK

In order of rising Kd:
1. GGUCCAUGCGAAAGUAUGGACC (structured_RNA) [9 bp hairpin]  54 ± 6.94 nM
2. GGUCCGAAAGGACC (structured_RNA) [5 bp hairpin]  71 ± 12.1 nM
3. GGUCCAUGCGGGCGAAAGUCUGUAUGGACC (structured_RNA) [13 bp hairpin]  83 ± 9.8 nM

The binders below were run against Sox2 full length (Homo sapiens, UniProt P48431 1-317) in the same assay as above. Conditions: protein: recombinant; tags: N-terminal His6 and thrombin site (retained); label: 3' fluorescein; unstructured.
Sox2 full length, sequence (P48431 whole entry): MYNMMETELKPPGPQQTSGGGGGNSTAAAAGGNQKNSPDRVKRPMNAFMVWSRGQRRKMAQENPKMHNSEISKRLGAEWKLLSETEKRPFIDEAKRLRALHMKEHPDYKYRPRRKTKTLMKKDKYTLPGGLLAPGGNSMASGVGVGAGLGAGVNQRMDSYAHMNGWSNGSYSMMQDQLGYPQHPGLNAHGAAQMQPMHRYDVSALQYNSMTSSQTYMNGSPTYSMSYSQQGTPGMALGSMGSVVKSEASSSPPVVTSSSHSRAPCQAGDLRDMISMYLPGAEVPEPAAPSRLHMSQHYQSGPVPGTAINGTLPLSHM

In the case of AUACAACAUACAACAUACAACAUACAACAUACAACA (ssRNA) [env8 ssRNA], the Kd is reported as 512 ± 76.5 nM.

Same assay, conditions: protein: recombinant; tags: N-terminal His6 and thrombin site (retained); label: FAM; only (+) strand given

B17 showed a Kd of 2.1 ± 0.599 nM.

The binders below were run against T1, Sox2-HMG (assay: EMSA; 10 mM Tris-HEPES pH 7.5, 135 mM KCl, 15 mM NaCl, 1 mM DTT, 8% Ficoll, 0.05% NP-40, 0.1 mg/mL BSA; 2 nM DNA or 3 nM RNA; room temperature (stated for competition)). Conditions: protein: recombinant; tags: N-terminal His6, thrombin cleaved; label: 3' fluorescein; hairpin.

For GGUCUUAUCAUGCGGGCGAAAGUCUGUAUGAUGGGACC (structured_RNA) [Loop B, Fully Paired], the Kd was 20 ± 4 nM.
